What was measured:
[1] = molecular target: human Angiotensin Converting Enzyme 2 (ACE2, amino acids 19-615) fused to human IgG Fc (human) (UniProt Q9BYF1)
[2] = molecular target: human Angiotensin Converting Enzyme 2 (ACE2, amino acids 19-615) fused to human IgG Fc (human) (UniProt Q9BYF1); experiment: SPR

Substance	reduction of the surface membrane ACE2 level on pericytes (immunohistochemistry, overlap with PDGFRβ) after 3 h of RBD (0.7 mg/l) on hamster brain slices; ACE2 is the endogenous hamster protein [1]	percent reduction of binding against RBD-WT [2]
SARS-CoV-2 receptor binding domain (RBD, original Wuhan variant), amino acids 330-532 (domain or fragment)	32%	
SARS-CoV-2 receptor binding domain Y489R mutant (RBD-Y489R) (domain or fragment; other documents disagree on this pair)		94%
